Data as given in US9267116B2, “Amino acid dehydrogenase, and process for producing L-amino acid, 2-oxo acid or D-amino acid” (KANEKA CORPORATION, priority 2008, dated 2016).

Assay: Properties of the purified amino acid dehydrogenase (specific activity, action temperature and pH), NADH decline at 340 nm
Format: biochemical, Rhodococcus qingshengii strain KNK2108
Settings: 30° C., pH 9.0, phenylpyruvic acid substrate; 1 unit = 1 μmol NADH consumed in 1 minute
Description: In the embodiments, the amino acid dehydrogenase activity of the polypeptide can be measured, for example, based on the rate of decline in the absorbance at a wavelength of 340 nm when 1.2 mL of 0.5 M NH3/NH4Cl buffer (pH 9.0), 0.2 mL of 0.1 M sodium carbonate buffer (pH 9.0) containing 3 mM NADH coenzyme, and 0.1 mL of an appropriately diluted enzyme solution are added to 1.5 mL of 0.1 M sodium carbonate buffer (pH 9.0) containing 10 mM phenylpyruvic acid as substrate and a reaction is run for 1 minute at 30° C. In the embodiments, the amino acid dehydrogenase activity was measured using this method unless indicated otherwise.
The activity of the amino acid dehydrogenase was measured based on the rate of decline in the absorbance at a wavelength of 340 nm when 1.2 mL of 0.5 M NH3/NH4Cl buffer (pH 9.0), 0.2 mL of 0.1 M sodium carbonate buffer (pH 9.0) that contained 3 mM NADH coenzyme, and 0.1 mL of the appropriately diluted enzyme solution were added to 1.5 mL of 0.1 M sodium carbonate buffer (pH 9.0) that contained 10 mM phenylpyruvic acid substrate and a reaction was carried out for 1 minute at 30° C. 1 unit is defined here as the quantity of enzyme that consumed 1 μmol NADH in 1 minute. The protein was quantified by the Bradford method using BSA as the reference protein.
The action temperature range and the optimal temperature were examined. […]

B1: purified amino acid dehydrogenase: amino acid dehydrogenase purified from Rhodococcus qingshengii strain KNK2108 (Example 1), SEQ ID NO:1, classified as phenylalanine dehydrogenase (protein, listed as Rhodococcus qingshengii)
chain: MSIDDELRWDGELTVTRHDRETGTTFVIRIDSTRLGPASGGTRAAHYPSIGHALADAGKLAGAMTLKMAVSDLPMGGGKSVIALPAPRNQIDAATWSRILGIHAENIDKLEGNYWTGPDVNTNSSDMDQLSRTTRYVFGRSVDKGGAGSSAHATALGVFEAMKATARRRGLGTLDGRTVLVQGLGAVGGDVVRLAAQAGARLLVADTDPQRLEAASLAGHTVVPAGEVLRTPCDLFAPCAMGGIIDFAAAASIPTLAVAGAANNILTDAAAGEVLRDRGVLCAPDFVANAGGAFHLVGREVLGWNEDYVVERTRGIGRTLDEVYSLSEERGITTEAAALMLARARLSPASTAAAATSAAPAAAAASPA
specific activity: 204 units/mg protein
